Results reported in PMC11286949, “Structural basis of tRNA recognition by the widespread OB fold”.
Changes are numbered by the printed parent chain.

T1: Arc1p dN (Saccharomyces cerevisiae, UniProt P46672 132-376, del1-131)
T1 sequence: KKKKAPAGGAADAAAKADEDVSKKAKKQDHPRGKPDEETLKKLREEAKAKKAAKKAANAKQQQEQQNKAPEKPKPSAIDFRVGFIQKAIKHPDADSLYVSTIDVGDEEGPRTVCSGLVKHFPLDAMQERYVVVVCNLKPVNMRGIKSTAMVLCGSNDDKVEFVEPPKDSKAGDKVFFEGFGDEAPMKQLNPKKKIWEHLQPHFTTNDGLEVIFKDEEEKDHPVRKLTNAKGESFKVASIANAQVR

B1: MiniH (structured_RNA)
RNA: AGGCUUGGGUGGUUCAAGUCCACUCAGGCCUACCA
B2: MicroH (structured_RNA)
RNA: AGGCUUUUCAAGUAGGCCUACCA
B3: MiniH dA73/dC74 (structured_RNA)
RNA: AGGCUUGGGUGGUUCAAGUCCACUCAGGCCUCA
B4: MiniH-ACCU (structured_RNA)
RNA: B1 RNA with A35U
B5: MiniH-ACCC (structured_RNA)
RNA: B1 RNA with A35C
B6: MiniH-ACCG (structured_RNA)
RNA: B1 RNA with A35G
B7: MiniH-AC-2AP-A (structured_RNA)
RNA: B1 RNA with C34A
modifications: 2-aminopurine at position 75
B8: MiniH-ACC-2AP (structured_RNA)
RNA: B1 RNA
modifications: 2-aminopurine at position 76

What was measured:
[1] = target: T2, Trbp111 (Aquifex aeolicus, UniProt O66738 1-111); test: competition FP; vs fluorescein-tRNATyr; FP: 25 mM Tris-HCl pH 7.5, 2 mM MgCl2, 50 mM NaCl (Trbp111) or 150 mM NaCl (Arc1p), room temperature; ITC: 25 mM Tris-HCl pH 7.4, 150 mM NaCl, 2 mM MgCl2, 25 C; settings: protein: recombinant; tags: His-MBP removed (PreScission); chain copies: 2; hairpin
T2 sequence (O66738 entry or part of it): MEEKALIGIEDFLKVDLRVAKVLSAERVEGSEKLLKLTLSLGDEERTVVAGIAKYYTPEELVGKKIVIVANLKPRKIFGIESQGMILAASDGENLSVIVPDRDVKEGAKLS

[2] = target: T1, Arc1p dN; test: competition fluorescence polarization; ITC (Arc1p): 25 mM Tris-HCl pH 7.4, 150 mM NaCl, 2 mM MgCl2, 25 °C. FP and competition FP: 25 mM Tris-HCl pH 7.5, 150 mM NaCl (Arc1p) or 50 mM NaCl (Trbp111), 2 mM MgCl2, room temperature; settings: protein: recombinant; tags: His-MBP removed; hairpin
[3] = target: T2, Trbp111; test: as above; settings: protein: recombinant; tags: His-MBP removed (PreScission); chain copies: 2; hairpin
[4] = target: T1, Arc1p dN; test: competition FP; FP: 25 mM Tris-HCl pH 7.5, 2 mM MgCl2, 50 mM NaCl (Trbp111) or 150 mM NaCl (Arc1p), room temperature; ITC: 25 mM Tris-HCl pH 7.4, 150 mM NaCl, 2 mM MgCl2, 25 C; settings: protein: recombinant; tags: His-MBP removed; hairpin
[5] = target: T2, Trbp111; test: as above; settings: protein: recombinant; tags: His-MBP removed (PreScission); chain copies: 2; hairpin
[6] = target: T1, Arc1p dN; test: as above; settings: protein: recombinant; tags: His-MBP removed; hairpin; remark: listed apart in the source
[7] = target: T1, Arc1p dN; test: 2AP fluorescence lifetime; 20 uM protein: 4.76 to 6.2 ns; FP: 25 mM Tris-HCl pH 7.5, 2 mM MgCl2, 50 mM NaCl (Trbp111) or 150 mM NaCl (Arc1p), room temperature; ITC: 25 mM Tris-HCl pH 7.4, 150 mM NaCl, 2 mM MgCl2, 25 C; settings: protein: recombinant; tags: His-MBP removed; label: 2AP; hairpin
[8] = target: T2, Trbp111; test: 2AP fluorescence lifetime; 60 uM protein: 4.73 to 5.76 ns; FP: 25 mM Tris-HCl pH 7.5, 2 mM MgCl2, 50 mM NaCl (Trbp111) or 150 mM NaCl (Arc1p), room temperature; ITC: 25 mM Tris-HCl pH 7.4, 150 mM NaCl, 2 mM MgCl2, 25 C; settings: protein: recombinant; tags: His-MBP removed (PreScission); chain copies: 2; label: 2AP; hairpin
[9] = target: T1, Arc1p dN; test: 2AP fluorescence lifetime; 20 uM protein: 5.46 to 6.26 ns; FP: 25 mM Tris-HCl pH 7.5, 2 mM MgCl2, 50 mM NaCl (Trbp111) or 150 mM NaCl (Arc1p), room temperature; ITC: 25 mM Tris-HCl pH 7.4, 150 mM NaCl, 2 mM MgCl2, 25 C; settings: protein: recombinant; tags: His-MBP removed; label: 2AP; hairpin

Binder | IC50 [2] [µM] | IC50 [3] [µM] | binding signal [6] [fold weaker than MiniH] | other results
B1 | 3.69 ± 0.931 | 5.96 ± 1.02 |  | IC50 [1]: 6.5 ± 1 µM; binding signal [4]: ~10 fold weaker than tRNA
B2 | 4.66 ± 0.769 | 7.32 ± 0.991 |  | IC50 [1]: 7.2 ± 1 µM; binding signal [4]: ~10 fold weaker than tRNA
B3 | 2.78 ± 0.339 | 2.17 ± 0.151 |  | binding signal [5]: ~3 fold higher affinity than MiniH
B4 | 11.8 ± 2.67 |  | ~3 | 
B5 | 13.2 ± 4.95 |  | ~3 | 
B6 | 7.58 ± 2.9 |  | ~2 | 
B7 |  |  |  | binding result [7]: binds; binding result [8]: binds
B8 |  |  |  | binding result [9]: binds
